According to paper PMC6805484 (2019):

B1: GFP-MKRN1^wt (Makorin Ring Finger Protein 1, wild type, N-terminally GFP-tagged) [human] / cytoplasmic poly(A)-binding protein PABPC4 (endogenous) [human (endogenous in HEK293T)] (parent complex)
chain 1: MAEAATPGTTATTSGAGAAAATAAAASPTPIPTVTAPSLGAGGGGGGSDGSGGGWTKQVTCRYFMHGVCKEGDNCRYSHDLSDSPYSVVCKYFQRGYCIYGDRCRYEHSKPLKQEEATATELTTKSSLAASSSLSSIVGPLVEMNTGEAESRNSNFATVGAGSEDWVNAIEFVPGQPYCGRTAPSCTEAPLQGSVTKEESEKEQTAVETKKQLCPYAAVGECRYGENCVYLHGDSCDMCGLQVLHPMDAAQRSQHIKSCIEAHEKDMELSFAVQRSKDMVCGICMEVVYEKANPSERRFGILSNCNHTYCLKCIRKWRSAKQFESKIIKSCPECRITSNFVIPSEYWVEEKEEKQKLILKYKEAMSNKACRYFDEGRGSCPFGGNCFYKHAYPDGRREEPQRQKVGTSSRYRAQRRNHFWELIEERENSNPFDNDEEEVVTFELGEMLLMLLAAGGDDELTDSEDEWDLFHDELEDFYDLDL
chain 2: MNAAASSYPMASLYVGDLHSDVTEAMLYEKFSPAGPVLSIRVCRDMITRRSLGYAYVNFQQPADAERALDTMNFDVIKGKPIRIMWSQRDPSLRKSGVGNVFIKNLDKSIDNKALYDTFSAFGNILSCKVVCDENGSKGYAFVHFETQEAADKAIEKMNGMLLNDRKVFVGRFKSRKEREAELGAKAKEFTNVYIKNFGEEVDDESLKELFSQFGKTLSVKVMRDPNGKSKGFGFVSYEKHEDANKAVEEMNGKEISGKIIFVGRAQKKVERQAELKRKFEQLKQERISRYQGVNLYIKNLDDTIDDEKLRKEFSPFGSITSAKVMLEDGRSKGFGFVCFSSPEEATKAVTEMNGRIVGSKPLYVALAQRKEERKAHLTNQYMQRVAGMRALPANAILNQFQPAAGGYFVPAVPQAQGRPPYYTPNQLAQMRPNPRWQQGGRPQGFQGMPSAIRQSGPRPTLRHLAPTGSECPDRLAMDFGGAGAAQQGLTDSCQSGGVPTAVQNLAPRAAVAAAAPRAVAPYKYASSVRSPHPAIQPLQAPQPAVHVQGQEPLTASMLAAAPPQEQKQMLGERLFPLIQTMHSNLAGKITGMLLEIDNSELLHMLESPESLRSKVDEAVAVLQAHHAKKEAAQKVGAVAAATS

Variants of: B1
Assay: AP with quantitative MS-based proteomics (SILAC); HEK293T cells; combined ratios of three replicates; read off a plot
With chain 1 A169S, chain 1 F172A, chain 1 P174A the screen value was about -9.1 z-score.
